What is called tissue uptake is the percentage of the injected dose found per gram of tissue.

Data set [1] deals with HER2-expressing cell lines pretreated with Z-HP9. Kind of data set: In vitro pretargeting specificity of secondary probes. The data set is classed as cell-based, human. The following applies: Z-HP9 1 nM, labeled secondary probe 10 nM, 1 h 37 °C; n = 3. The method, then:
Figure 4 In vitro binding specificity of primary agents, (A) [^177Lu]Lu-Z-HP9 and (B) [^177Lu]Lu-Z-HP12 on SKOV-3 and BT-474 cell lines. […] In the second and third groups, cells were incubated with a large amount of unlabeled anti-HER2 ZHER2:342 affibody molecule and unlabeled secondary agent before the addition of radiolabeled secondary agent, respectively. A radiolabeled secondary agent was added directly to cells in the fourth group without adding a primary agent. The data are presented as an average value from three samples ±SD.
Figure 4C,D further elucidates the specificity of PNA-mediated pretargeting on HER2-expressing cell lines when cells were pretreated with a primary agent. […] These findings collectively affirm the success of the in vitro pretargeting approach.
Thereafter, ^177Lu-secondary probe (10 nM) was added, and cells were incubated for 1 h at 37 °C. After that, cells were treated as mentioned above. […] Then, a radiolabeled secondary probe (10 nM) was added and incubated for 1 h at 37 °C. Further treatment was the same as pretargeting group. […] Further treatment was the same as mentioned above. To evaluate unspecific binding, the radiolabeled secondary probe (10 nM) was added to the cells without any pretreatment with the primary agent and incubated for 1 h at 37 °C. After incubation, the cells were washed and treated as mentioned above.

The subject of the next data set is SKOV-3 cells. Kind of data set: Cellular processing and retention (acid wash), SKOV-3. The following applies: SKOV-3 pretreated with 1 nM nonlabeled Z-HP9; labeled secondary probe 10 nM; n = 3. The data set is classed as cell-based, human. On the procedure:
(§1) After a 24 h incubation period, the total cell-associated bound activity was recorded as 72.0 ± 1.7 and 65.2 ± 1.8% for [^177Lu]Lu-Z-HP9, and 74.5 ± 0.2 and 55.6 ± 2.4% for [^177Lu]Lu-Z-HP12 on SKOV-3 and BT-474 cells, respectively. The internalized fractions were quantified as 9.7 ± 1.1 and 10.4 ± 0.6% for [^177Lu]Lu-Z-HP9 and [^177Lu]Lu-Z-HP12 after 24 h of incubation. The pattern was similar for both HER2-expressing cell lines, with slow internalization, which is typical for affibody molecules.
(§2) Figure 5 Cellular processing and retention of [^177Lu]Lu-Z-HP9 (A,B), [^177Lu]Lu-Z-HP12 (C,D), [^177Lu]Lu-HP16 (E,F), and [^177Lu]Lu-HP20 (G, H) on SKOV-3 (A,C,E,G) and BT-474 (B,D,F,H) cells after interrupted incubation with labeled compounds. […] The data are presented as an average value from three samples ±SD.
(§3) The pattern of internalization of the labeled secondary probes by cancer cells, which were pretreated with primary probes, was similar to the pattern for primary agents. […]
(§4) A validated acid-wash method[53] was used for cellular processing and retention of radiolabeled probes by SKOV-3 and BT-474 using interrupted incubation procedure. […] The radioactivity in each fraction was measured using an automated gamma spectrometer. The radioactivity of acidic and alkaline fractions was considered as membrane and internalized parts, respectively. […]

The next data set has as its system BT-474 cells. Kind of data set: Cellular processing and retention (acid wash), BT-474. The format is cell-based, human. The following applies: BT-474 pretreated with 1 nM nonlabeled Z-HP9; labeled secondary probe 10 nM; n = 3. The method, then:
as §1, §2, §3, §4

Another data set can be described thus: in vivo. Further details: species or system BALB/C nu/nu mice. The following applies: female, BALB/C nu/nu, mouse, total radioactivity. An excerpt: Animal studies were planned in agreement with EU Directive 2010/63/EU for animal experiments and Swedish national legislation concerning the protection of laboratory animals and were approved by the Ethics Committee for Animal Research in Uppsala, Sweden (animal permission C4/16). HER2-positive xenografts were implanted by subcutaneous injection of 10^7 SKOV-3 cells in the right hind legs of female BALB/C nu/nu mice. Three weeks after implantation, mice were randomized into 8 groups, with 4 mice in each group. At the time of the experiment, the average animal weight was 20 ± 1 g. The average tumor weight was 0.26 ± 0.14 g. The mice were euthanized at predetermined time points by overdose of Ketamine/Xylazine anesthesia, followed by heart puncture. The organs of interest such as blood, lung, liver, spleen, kidney, muscle, bone, and tumor were collected, weighed, and subsequently their radioactivity was measured. Organs and tumor uptake were calculated as the percentage of the injected dose per gram of the sample (%ID/g).
To evaluate in vivo specificity, 2 groups of mice were injected with [^177Lu]Lu-HP16 and [^177Lu]Lu-HP20 without preinjection of the primary agent. At 4 h postinjection, the mice were euthanized and treated as mentioned above.
Table S2. Comparative biodistribution of [177Lu]Lu-HP16 and [177Lu]Lu-HP20 in BALB/C nu/nu mice bearing SKOV3
xenografts at 4 h post-injection without pre-injection of a primary agent. Data are presented as an average of %ID/g ± SD, n
*Significant (p<0.05) difference; **The gastrointestinal (GI) and carcass data are expressed as %ID per whole sample.

For `NC(=O)[C@H](Cc1ccc(O)cc1)NC(=O)[C@H](CCC(=O)O)NC(=O)[C@H](CCC(=O)O)NC(=O)CN(CCNC(=O)CN(CCNC(=O)CN(CCNC(=O)CN(CCNC(=O)CN(CCNC(=O)CN(CCNC(=O)CN(CCNC(=O)CN(CCNC(=O)[C@H](CO)NC(=O)[C@H](CO)NC(=O)COCCOCCNC(=O)CN1CCN(CC(=O)O)CCN(CC(=O)O)CCN(CC(=O)O)CC1)C(=O)Cn1cnc2c(N)ncnc21)C(=O)Cn1ccc(N)nc1=O)C(=O)Cn1cnc2c(N)ncnc21)C(=O)Cn1ccc(N)nc1=O)C(=O)Cn1ccc(N)nc1=O)C(=O)Cn1cnc2c(N)ncnc21)C(=O)Cn1cnc2c(=O)[nH]c(N)nc21)C(=O)Cn1cnc2c(=O)[nH]c(N)nc21` [[^177Lu]Lu-HP20, metal not drawn], in data set [1], the “binding to Z-HP9 pretreated cells relative to other treated groups” value amounted to 11 fold. The “total cell-associated bound activity after 24 h” value in the data set with SKOV-3 cells came to 52.8 ± 0.4%; in the data set on BT-474 cells, 42.2 ± 2.0%. Further, the tissue uptake at 4 h is 0.01 ± 0.004 %ID/g in the data set “in vivo” (Blood); 0.03 ± 0.02 %ID/g in “in vivo” (Bone); 4.86 ± 0.85 %ID/g in the data set “in vivo” (Kidney); 0.15 ± 0.01 %ID/g in the data set “in vivo” (Liver); 0.07 ± 0.01 %ID/g in “in vivo” (Lung); 0.02 ± 0.01 %ID/g in “in vivo” (Muscle). In addition, the tissue uptake at 4 h in “in vivo” (Spleen) amounted to 0.07 ± 0.01 %ID/g; in “in vivo” (Tumour), 0.11 ± 0.03 %ID/g. Further, the tissue uptake dose at 4 h was determined as 1.1 ± 0.34 %ID in “in vivo” (Carcass) and 1.25 ± 1.06 %ID in “in vivo” (GI).
As to `NC(=O)[C@H](Cc1ccc(O)cc1)NC(=O)[C@H](CCC(=O)O)NC(=O)[C@H](CCC(=O)O)NC(=O)CN(CCNC(=O)CN(CCNC(=O)CN(CCNC(=O)CN(CCNC(=O)CN(CCNC(=O)CN(CCNC(=O)CN(CCNC(=O)CN(CCNC(=O)CN(CCNC(=O)[C@H](CO)NC(=O)[C@H](CO)NC(=O)COCCOCCNC(=O)CN1CCN(CC(=O)O)CCN(CC(=O)O)CCN(CC(=O)O)CC1)C(=O)Cn1cnc2c(N)ncnc21)C(=O)Cn1cnc2c(N)ncnc21)C(=O)Cn1ccc(N)nc1=O)C(=O)Cn1cnc2c(N)ncnc21)C(=O)Cn1ccc(N)nc1=O)C(=O)Cn1ccc(N)nc1=O)C(=O)Cn1cnc2c(N)ncnc21)C(=O)Cn1cnc2c(=O)[nH]c(N)nc21)C(=O)Cn1cnc2c(=O)[nH]c(N)nc21` [[^177Lu]Lu-HP16, metal not drawn], the “binding to Z-HP9 pretreated cells relative to other treated groups” value in data set [1] was 11 fold. In addition, the “total cell-associated bound activity after 24 h” value with SKOV-3 cells worked out at 55.0 ± 1.0%; with BT-474 cells it was 26.1 ± 1.2%. Also, the tissue uptake at 4 h in “in vivo” (Blood) amounted to 0.02 ± 0.02 %ID/g; in the data set “in vivo” (Bone), 0.04 ± 0.01 %ID/g; in the data set “in vivo” (Kidney), 4.41 ± 0.61 %ID/g; in the data set “in vivo” (Liver) it was 0.13 ± 0.01 %ID/g; in “in vivo” (Lung), 0.1 ± 0.03 %ID/g; in the data set “in vivo” (Muscle) it was 0.05 ± 0.02 %ID/g. Besides, the tissue uptake at 4 h was 0.08 ± 0.01 %ID/g in the data set “in vivo” (Spleen) and 0.09 ± 0.01 %ID/g in the data set “in vivo” (Tumour). For the same compound, the tissue uptake dose at 4 h amounted to 1.49 ± 0.42 %ID in the data set “in vivo” (Carcass) and 0.61 ± 0.16 %ID in the data set “in vivo” (GI).

For the origin of these results see paper PMC11091976, “Shorter Peptide Nucleic Acid Probes Improve Affibody-Mediated Peptide Nucleic Acid-Based Pretargeting” (ACS Pharmacology & Translational Science, 2024).
